# Data as given in US20110071077A1, “Thrombopoietic Compounds” (AMGEN INC., priority 2006, published 2011).
# pEC50, pIC50: −log10 of the molar value. Bridge positions count the residues as written; N and C are the ends. Ends that are not written are not given here. PEG = not defined here
# Legend:
# [1] = biological target: T1, human mpl receptor (Homo sapiens, UniProt P40238); assay: TPO in vitro bioassay, mitogenic assay in IL-3 dependent murine 32D cells; format: cell-based; details: for Relative Potency: in terms of EC50, numerals indicate approximately 1 log of activity
# T1 construct: IL-3 dependent clone of murine 32D cells transfected with the full-length c-Mpl; expressed in transfected cells; host or cells: IL-3 dependent clone of murine 32D cells
# T1 sequence (P40238 26-635): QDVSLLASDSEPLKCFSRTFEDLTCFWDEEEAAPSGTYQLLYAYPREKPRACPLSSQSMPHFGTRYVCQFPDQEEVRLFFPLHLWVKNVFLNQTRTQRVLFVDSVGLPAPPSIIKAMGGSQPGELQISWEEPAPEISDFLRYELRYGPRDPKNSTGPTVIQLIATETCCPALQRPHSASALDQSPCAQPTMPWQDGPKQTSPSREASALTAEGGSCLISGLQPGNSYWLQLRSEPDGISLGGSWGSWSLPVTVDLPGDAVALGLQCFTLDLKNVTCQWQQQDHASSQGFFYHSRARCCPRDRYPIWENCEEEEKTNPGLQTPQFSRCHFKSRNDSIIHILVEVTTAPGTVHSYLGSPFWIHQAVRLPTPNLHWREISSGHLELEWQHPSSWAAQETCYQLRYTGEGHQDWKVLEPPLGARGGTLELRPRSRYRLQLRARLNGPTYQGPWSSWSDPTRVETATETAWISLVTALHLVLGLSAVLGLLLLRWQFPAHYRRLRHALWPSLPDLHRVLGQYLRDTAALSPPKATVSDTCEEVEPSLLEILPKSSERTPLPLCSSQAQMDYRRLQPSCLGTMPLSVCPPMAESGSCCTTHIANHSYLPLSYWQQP
# Method: Bioactivity assay. The TPO in vitro bioassay is a mitogenic assay utilizing an IL-3 dependent clone of murine 32D cells that have been transfected with human mpl receptor. This assay is described in greater detail in WO 95/26746. Cells are maintained in MEM medium containing 10% Fetal Clone II and 1 ng/ml mIL-3. Prior to sample addition, cells are prepared by rinsing twice with growth medium lacking mIL-3. An extended twelve point TPO standard curve is prepared, ranging from 3333 to 39 pg/ml. Four dilutions, estimated to fall within the linear portion of the standard curve, (1000 to 125 pg/ml), are prepared for each sample and run in triplicate. A volume of 100 μl of each dilution of sample or standard is added to appropriate wells of a 96 well microtiter plate containing 10,000 cells/well. After forty-four hours at 37° C. and 10% CO2, MTS (a tetrazolium compound which is bioreduced by cells to a formazan) is added to each well. Approximately six hours later, the optical density is read on a plate reader at 490 nm. A dose response curve (log TPO concentration vs. O.D.-Background) is generated and linear regression analysis of points which fall in the linear portion of the standard curve is performed. Concentrations of unknown test samples are determined using the resulting linear equation and a correction for the dilution factor. […]
# [2] = test system: Normal female BDF1 mice; assay: platelets in mice, 7-day micro-osmotic pumps; format: in vivo
# Method: Mice. Normal female BDF1 approximately 10-12 weeks of age.
# Bleed schedule. Ten mice per group treated on day 0, two groups started 4 days apart for a total of 20 mice per group. Five mice bled at each time point, mice were bled a minimum of three times a week. Mice were anesthetized with isoflurane and a total volume of 140-160 μl of blood was obtained by puncture of the orbital sinus. Blood was counted on a Technicon H1E blood analyzer running software for murine blood. Parameters measured were white blood cells, red blood cells, hematocrit, hemoglobin, platelets, neutrophils.
# Treatments. Mice were either injected subcutaneously for a bolus treatment or implanted with 7 day micro-osmotic pumps for continuous delivery. Subcutaneous injections were delivered in a volume of 0.2 ml. Osmotic pumps were inserted into a subcutaneous incision made in the skin between the scapulae of anesthetized mice. Compounds were diluted in PBS with 0.1% BSA. All experiments included one control group, labeled “carrier” that were treated with this diluent only. The concentration of the test articles in the pumps was adjusted so that the calibrated flow rate from the pumps gave the treatment levels indicated in the graphs.
# Compounds. A dose titration of the compound was delivered to mice in 7 day micro-osmotic pumps. Mice were treated with various compounds at a single dose of 100 ug/kg in 7 day osmotic pumps. Some of the same compounds were then given to mice as a single bolus injection.
# [3] = biological target: T2, c-Mpl receptor (Homo sapiens, UniProt P40238); details: cited from earlier work
# T2 sequence (P40238 26-635): T1 sequence (P40238 26-635)
# [4] = biological target: T3, c-Mpl (Homo sapiens, UniProt P40238); details: cited from earlier work
# T3 sequence (P40238 26-491 limits assumed): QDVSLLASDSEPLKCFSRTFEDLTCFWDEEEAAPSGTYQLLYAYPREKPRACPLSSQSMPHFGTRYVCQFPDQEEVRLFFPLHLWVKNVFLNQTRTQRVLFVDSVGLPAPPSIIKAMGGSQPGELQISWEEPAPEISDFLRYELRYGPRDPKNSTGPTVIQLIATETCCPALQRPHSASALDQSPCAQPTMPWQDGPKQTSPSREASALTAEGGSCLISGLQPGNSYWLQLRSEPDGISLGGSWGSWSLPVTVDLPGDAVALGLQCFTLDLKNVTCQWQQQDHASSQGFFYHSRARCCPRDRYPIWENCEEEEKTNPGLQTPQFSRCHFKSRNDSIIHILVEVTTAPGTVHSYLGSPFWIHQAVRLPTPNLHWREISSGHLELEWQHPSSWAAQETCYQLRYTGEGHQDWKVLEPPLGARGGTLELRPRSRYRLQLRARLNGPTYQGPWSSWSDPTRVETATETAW
Relative Potency [1],Substance,in vitro bioactivity in words [1],other results
4.0,TMP-GGGCGGGG-TMP (IEGPTLRQWLAARAGGGCGGGGIEGPTLRQWLAARA) [peptide 18],–,–
0.5,"peptide 14: Trp in each TMP monomer replaced with Cys, intramolecular disulfide bond between the two cysteines (IEGPTLRQCLAARAGGGGGGGGIEGPTLRQCLAARA; disulfide 9-31)",inactive,–
3.0,TMP-GPNG-TMP (IEGPTLRQWLAARAGPNGIEGPTLRQWLAARA) [peptide 13],–,increase in potency as compared to the monomer [1]: about 100 fold
5.0,TMP-GGGC(PEG)GGGG-TMP (IEGPTLRQWLAARAGGGC(PEG)GGGGIEGPTLRQWLAARA; reading uncertain) [peptide 20],even higher in vitro bioactivity as compared to their unpegylated counterparts,"activity compared with unpegylated rHu-MGDF ([2]; 10 μg/kg/day): about equally active as 100 μg/kg/day unpegylated rHu-MGDF; activity relative to maximum ([2]; 10 μg/kg/day): about 50%; dose of maximum effect ([2]; dose response, data not shown): 100 µg/kg/day; lowest dose at which activity could be seen ([2]; mouse, in vivo): 1 µg/kg/day"
4.0,TMP-GGGKGGGG-TMP (IEGPTLRQWLAARAGGGKGGGGIEGPTLRQWLAARA) [peptide 17a],–,–
3.5,"IEGPTLRQWLAARAARAALWQRLTPGEI [TMP C-C dimer, reference compound]",lower than that of the native TPO protein,pEC50 [3]: 10.00; binding affinity [4]: 0.5 nM
4.0,"TPO: native TPO protein, endogenous thrombopoietin",–,–
1.0,"IEGPTLRQWLAARA [TMP monomer, 14-residue TPO Mimetic Peptide (Cwirla et al.)]",–,pEC50 [3]: 6.40; pIC50 [4]: 8.70
4.0,TMP-GGGNGSGG-TMP (IEGPTLRQWLAARAGGGNGSGGIEGPTLRQWLAARA) [compound 21],activity comparable to that of the -(Gly)8- linked analog,–
5.0,TMP-GGGK(PEG)GGGG-TMP (IEGPTLRQWLAARAGGGK(PEG)GGGGIEGPTLRQWLAARA; reading uncertain) [peptide 19],even higher in vitro bioactivity as compared to their unpegylated counterparts,–

Substance,Relative Potency [1],in vitro bioactivity in words [1],other results
IEGPTLRQALAARA-GGGGGGGG-IEGPTLRQALAARA (IEGPTLRQALAARAGGGGGGGGIEGPTLRQALAARA) [peptide 16],0.5,inactive,–
IEGPTLRQCLAARA-GGGGGGGG-IEGPTLRQCLAARA (IEGPTLRQCLAARAGGGGGGGGIEGPTRLQCLAARA) [compound 15],0.5,inactive,–
